Reference: patent US20210087281A1 (AGOMAB THERAPEUTICS, published 2021)

Legend:
human MET ECD [1] = target: T1, human MET ECD (human, UniProt P08581 25-932); test: ELISA, MET ECD in solid phase, crude periplasmic Fab
T1 construct: range 1-932; recombinant ECD made by the applicants; the stated range begins at residue 1, so it includes the signal peptide of the entry; also called hMET; hMET ECD
Experimental: (§1) Fab-expressing phages from the libraries described above were produced according to standard phage display protocols. For selection, phages were first adsorbed to immobilized recombinant human MET ECD, washed, and then eluted using trypsin. After two cycles of selection with human MET ECD, two other cycles were performed in the same fashion using mouse MET ECD. In parallel, we also selected phages alternating a human MET ECD cycle with a mouse MET ECD cycle, for a total of four cycles. Phages selected by the two approaches were pooled together and then used to infect TG1 E. coli. Individual colonies were isolated and secretion of Fabs was induced using IPTG (Fermentas). The Fab-containing periplasmic fraction of bacteria was collected and tested for its ability to bind human and mouse MET ECD by Surface Plasmon Resonance (SPR). Human or mouse MET ECD was immobilized on a CM-5 chip using amine coupling in sodium acetate buffer (GE Healthcare). The Fab-containing periplasmic extracts were loaded into a BIACORE 3000 apparatus (GE Healthcare) with a flow rate of 30 μl/min. The Fab off-rates (koff) were measured over a two minute period. Binding of Fabs to human and mouse MET was further characterized by ELISA using MET ECD in solid phase and periplasmic crude extract in solution.
(§2) TABLE 7 Fabs binding to both human MET (hMET) and mouse MET (mMET). Fabs are grouped in families based on their VH CDR3 sequence. Binding of Fabs to human and mouse MET ECD was determined by Surface Plasmon Resonance (SPR) and by ELISA. SPR values represent the koff (s⁻¹). ELISA values represent the Optical Density (OD) at 450 nm (AU, arbitrary units). Both SPR and ELISA were performed using crude periplasmic extracts. Fab concentration in the extract was not determined. Values are the mean of three independent measurements.

mouse MET ECD [2] = target: T2, mouse MET ECD (mouse, UniProt P16056 25-931); test: as above
T2 construct: range 1-931; recombinant ECD made by the applicants; the stated range begins at residue 1; also called mMET; mMET ECD
Experimental: as §1, §2

human MET ECD [3] = target: T1, human MET ECD; test: SPR, MET ECD on chip, crude periplasmic Fab
Experimental: as §1, §2

mouse MET ECD [4] = target: T2, mouse MET ECD; test: SPR, MET ECD on chip, crude periplasmic Fab
Experimental: as §1, §2

[5] = target: T3, mouse MET-Fc (R&D Systems) (mouse, UniProt P16056 25-929, limits assumed); test: competition ELISA, mMET-Fc in solid phase, competitor 0.3 nM biotinylated mHGF
T3 construct: bought chimeric protein; also called mMET; not shown: Fc part
Experimental: (§3) To investigate along this line, we tested the competition between mAbs and HGF by ELISA. Recombinant human and mouse HGF (R&D Systems) were biotinylated at the N-terminus using NHS-LC-biotin (Thermo Scientific). MET-Fc protein, either human or mouse (R&D Systems), was immobilized in solid phase and then exposed to 0.3 nM biotinylated HGF, either human or mouse, in the presence of increasing concentrations of antibodies (0-120 nM).
(§4) A MET-Fc chimeric protein (either human or mouse) was immobilized in solid phase and exposed to a fixed concentration of biotinylated HGF (either human or mouse), in the presence of increasing concentrations of antibodies. […] Antibody-HGF competition is expressed as IC₅₀ (the concentration that achieves 50% competition) and IMAX (the maximum % competition reached at saturation).

[6] = target: T4, human MET-Fc (R&D Systems) (human, UniProt P08581 25-932); test: competition ELISA, hMET-Fc in solid phase, competitor 0.3 nM biotinylated hHGF
T4 construct: extracellular domain; bought chimeric protein; also called hMET; not shown: Fc portion of human IgG1
Experimental: as §3, §4

[7] = target: T5, native mouse MET on living cells (mouse, UniProt P16056 25-1379); test: flow cytometry, MLP29 cells
T5 construct: whole, on cells; also called Mouse cells (MLP29); mouse epithelial cells expressing MET
Experimental: (§5) We also analysed whether chimeric anti-MET antibodies bound to native human and mouse MET in living cells. […] Antibody binding to cells was analysed by flow cytometry using phycoerythrin-conjugated anti-human IgG1 antibodies (eBioscience) and a CyAn ADP analyser (Beckman Coulter). As a positive control for human MET binding, we used a commercial mouse anti-human MET antibody (R&D Systems) and phycoerythrin-conjugated anti-mouse IgG1 antibodies (eBioscience).
(§6) As a positive control for mouse MET binding we used a commercial goat anti-mouse MET antibody (R&D Systems) and phycoerythrin-conjugated anti-goat IgG1 antibodies (eBioscience). […] Consistent with the data obtained in ELISA, maximal binding (EMAX) varied depending on antibody, but was similar in human and mouse cells.

[8] = target: T6, native human MET on living cells (human, UniProt P08581 25-1390); test: cell-based or functional assay
[9] = target: T5, native mouse MET on living cells; test: cell-based or functional assay
[10] = target: T6, native human MET on living cells; test: cell-based or functional assay; remark: listed apart in the source
[11] = target: T5, native mouse MET on living cells; test: cell-based or functional assay; remark: listed apart in the source
[12] = target: T6, native human MET on living cells; test: flow cytometry, A549 cells
Experimental: as §5, §6

[13] = target: T6, native human MET on living cells; test: cell-based or functional assay; remark: listed apart in the source
[14] = target: T5, native mouse MET on living cells; test: cell-based or functional assay; remark: listed apart in the source
[15] = target: T6, native human MET on living cells; test: cell-based or functional assay; remark: listed apart in the source
[16] = target: T5, native mouse MET on living cells; test: cell-based or functional assay; remark: listed apart in the source
human MET ECD [17] = target: T1, human MET ECD; test: ELISA, MET ECD in solid phase, mAb 0-20 nM
Experimental: (§7) Production (by transient transfection of mammalian cells) and purification (by protein A affinity chromatography) of the resulting chimeric llama-human IgG1 molecules was outsourced to U-protein Express. Binding of chimeric mAbs to MET was determined by ELISA using hMET or mMET ECD in solid phase and increasing concentrations of antibodies (0-20 nM) in solution. […] Binding capacity (EMAX) varied from antibody to antibody, possibly due to partial epitope exposure in the immobilized antigen, but was similar in the human and mouse setting.

mouse MET ECD [18] = target: T2, mouse MET ECD; test: ELISA, MET ECD in solid phase, mAb 0-20 nM
Experimental: as §7

T1 sequence (P08581 25-932 limits assumed, form in doubt): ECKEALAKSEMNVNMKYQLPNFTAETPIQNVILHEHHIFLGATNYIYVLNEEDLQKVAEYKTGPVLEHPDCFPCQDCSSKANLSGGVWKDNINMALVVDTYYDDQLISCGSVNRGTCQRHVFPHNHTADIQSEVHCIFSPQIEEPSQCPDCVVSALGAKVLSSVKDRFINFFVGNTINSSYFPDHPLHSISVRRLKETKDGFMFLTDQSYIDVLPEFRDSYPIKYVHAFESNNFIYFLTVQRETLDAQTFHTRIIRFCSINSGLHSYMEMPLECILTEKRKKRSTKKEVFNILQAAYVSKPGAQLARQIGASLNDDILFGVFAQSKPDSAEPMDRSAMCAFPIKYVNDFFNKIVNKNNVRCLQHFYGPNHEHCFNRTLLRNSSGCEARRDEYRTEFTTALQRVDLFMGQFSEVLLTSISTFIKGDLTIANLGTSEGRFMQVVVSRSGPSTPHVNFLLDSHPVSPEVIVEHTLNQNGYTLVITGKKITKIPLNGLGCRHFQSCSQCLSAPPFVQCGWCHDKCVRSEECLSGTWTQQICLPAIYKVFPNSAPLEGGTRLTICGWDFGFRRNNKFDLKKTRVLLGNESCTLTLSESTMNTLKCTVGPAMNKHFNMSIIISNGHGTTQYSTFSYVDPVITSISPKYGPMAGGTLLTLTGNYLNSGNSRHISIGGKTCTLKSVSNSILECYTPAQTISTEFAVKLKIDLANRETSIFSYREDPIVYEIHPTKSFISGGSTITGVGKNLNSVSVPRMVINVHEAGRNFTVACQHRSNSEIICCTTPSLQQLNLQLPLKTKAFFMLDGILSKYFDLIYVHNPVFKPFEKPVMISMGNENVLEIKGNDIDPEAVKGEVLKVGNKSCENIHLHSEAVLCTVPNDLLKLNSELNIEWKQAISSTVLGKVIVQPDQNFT
T6 sequence (P08581 25-1390): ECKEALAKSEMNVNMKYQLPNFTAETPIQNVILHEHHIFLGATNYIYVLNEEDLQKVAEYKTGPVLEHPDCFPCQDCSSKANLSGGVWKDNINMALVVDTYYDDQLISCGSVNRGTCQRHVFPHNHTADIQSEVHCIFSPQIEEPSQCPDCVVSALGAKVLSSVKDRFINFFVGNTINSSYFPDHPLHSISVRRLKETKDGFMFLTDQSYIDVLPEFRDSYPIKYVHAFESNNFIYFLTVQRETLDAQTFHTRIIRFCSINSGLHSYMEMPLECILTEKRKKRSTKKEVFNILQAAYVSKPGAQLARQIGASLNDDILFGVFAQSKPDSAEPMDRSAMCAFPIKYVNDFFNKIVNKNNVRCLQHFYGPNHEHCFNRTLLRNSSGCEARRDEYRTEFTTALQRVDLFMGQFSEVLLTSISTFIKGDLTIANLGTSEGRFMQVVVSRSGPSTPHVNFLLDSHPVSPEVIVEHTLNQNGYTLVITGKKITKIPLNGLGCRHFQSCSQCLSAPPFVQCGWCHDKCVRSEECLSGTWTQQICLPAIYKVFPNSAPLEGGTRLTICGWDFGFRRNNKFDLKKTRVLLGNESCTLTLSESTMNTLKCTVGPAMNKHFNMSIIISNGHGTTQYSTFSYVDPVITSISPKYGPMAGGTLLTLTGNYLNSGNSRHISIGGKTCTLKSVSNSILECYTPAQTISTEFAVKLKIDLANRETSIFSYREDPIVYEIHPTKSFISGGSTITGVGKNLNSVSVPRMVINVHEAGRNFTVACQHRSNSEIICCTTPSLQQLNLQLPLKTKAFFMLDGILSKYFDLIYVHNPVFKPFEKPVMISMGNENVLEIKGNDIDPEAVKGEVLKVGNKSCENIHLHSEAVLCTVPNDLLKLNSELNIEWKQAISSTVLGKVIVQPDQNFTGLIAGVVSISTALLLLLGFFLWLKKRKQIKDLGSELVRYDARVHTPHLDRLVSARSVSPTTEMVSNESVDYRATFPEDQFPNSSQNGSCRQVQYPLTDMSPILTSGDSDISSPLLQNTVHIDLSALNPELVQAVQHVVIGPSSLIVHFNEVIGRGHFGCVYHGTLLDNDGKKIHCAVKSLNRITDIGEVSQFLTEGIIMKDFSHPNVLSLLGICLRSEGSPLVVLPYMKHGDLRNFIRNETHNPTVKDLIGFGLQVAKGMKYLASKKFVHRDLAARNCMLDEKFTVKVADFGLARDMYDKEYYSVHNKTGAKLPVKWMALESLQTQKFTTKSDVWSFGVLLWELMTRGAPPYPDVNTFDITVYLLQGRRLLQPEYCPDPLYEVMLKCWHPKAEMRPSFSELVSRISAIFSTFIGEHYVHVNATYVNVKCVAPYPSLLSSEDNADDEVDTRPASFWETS
T4 sequence (P08581 25-932): as the sequence (P08581 25-932 limits assumed, form in doubt) above

B1: 76H10 Fab (Fab, V domains shown)
VH: QLQLVESGGGLVQPGGSLRVSCTASGFTFNTYYMTWVRQAPGKGLEWVSDINSGGGTYYADSVKGRFTISRDNAKNTLYLQMNSLKPEDTALYYCVRVRIWPVGYDYWGQGTQVTVSS
VL: QAVVTQEPSLSVSPGGTVTLTCGLSSGSVTTSNYPGWFQQTPGQAPRTLIYNTNNRHSGVPSRFSGSISGNKAALTITGAQPEDEADYYCSLYTGSYTTVFGGGTHLTVL
notes: llama Fab (VH-CH1 and lambda VL-CL) with MYC flag, crude periplasmic extract
B1 gave an OD450 (human MET ECD [1]) of 3.7 AU, an OD450 (mouse MET ECD [2]) of 3.7 AU and a koff (human MET ECD [3]) of 0.00568 s⁻¹. It also gave a koff (mouse MET ECD [4]) of 0.00544 s⁻¹.

B2: 71D6 Fab (Fab, V domains shown)
VH: ELQLVESGGGLVQPGGSLRLSCAASGFTFSSYGMSWVRQAPGKGLEWVSAINSYGGSTSYADSVKGRFTISRDNAKNTLYLQMNSLKPEDTAVYYCAKEVRADLSRYNDYESYDYWGQGTQVTVSS
VL: QPVLNQPSALSVTLGQTAKITCQGGSLGARYAHWYQQKPGQAPVLVIYDDDSRPSGIPERFSGSSSGGTATLTISGAQAEDEGDYYCQSADSSGSVFGGGTHLTVL
notes: as for B1
For B2, the OD450 (human MET ECD [1]) was 3.26 AU, the OD450 (mouse MET ECD [2]) was 3.07 AU and the koff (human MET ECD [3]) was 0.00294 s⁻¹. For the same binder, the koff (mouse MET ECD [4]) was 0.00267 s⁻¹.

B3: 71C3 Fab (Fab, V domains shown)
VH: QLQLVESGGGLVQPGGSLRLSCAASGFTFSSHAMSWVRQAPGKGLEWVSAINSGGGSTSYADSVKGRFTISRDNAKNTLYLQMNSLKPEDTAVYYCAKELRFDLARYTDYEAWDYWGQGTQVTVSS
VL: SYELTQPSALSVTLGQTAKITCQGGSLGSSYAHWYQQKPGQAPVLVIYDDDSRPSGIPERFSGSSSGGTATLTISGAQAEDEGDYYCQSADSSGNAAVFGGGTHLTVL
notes: as for B1
In the case of B3, the OD450 (human MET ECD [1]) is reported as 1.65 AU, the OD450 (mouse MET ECD [2]) is reported as 1.64 AU and the koff (human MET ECD [3]) is reported as 0.00225 s⁻¹. For the same binder, the koff (mouse MET ECD [4]) was 0.00258 s⁻¹.

B4: 71D4 Fab (Fab, V domains shown)
VH: ELQLVESGGGLVQPGGSLRLSCAASGFTFSGYGMSWVRQAPGKGLEWVSDINSGGGSTSYADSVKGRFTISRDNAKNTLYLQMNSLKPEDTAVYYCAKDMRLYLARYNDYEAWDYWGQGTQVTVSS
VL: SSALTQPSALSVTLGQTAKITCQGGSLGSSYAHWYQQKPGQAPVLVIYDDDSRPSGIPERFSGSSSGGTATLTISGAQAEDEGDYYCQSADSSGNAAVFGGGTHLTVL
notes: as for B1
In the case of B4, the OD450 (human MET ECD [1]) is reported as 0.311 AU, the OD450 (mouse MET ECD [2]) is reported as 0.307 AU and the koff (human MET ECD [3]) is reported as 0.00217 s⁻¹. The koff (mouse MET ECD [4]) was 0.00238 s⁻¹.

B5: 72F8 chimeric llama-human IgG1 mAb (antibody, V domains shown)
VH: ELQLVESGGGLVQPGGSLRLSCAASGFTFSNYVMSWVRQAPGKGLEWVSDTNSGGSTSYADSVKGRFTISRDNAKNTLYLQMNSLKPEDTALYYCARSFFYGMNYWGKGTQVTVSS
VL: QSALTQPPSLSASPGSSVRLTCTLSSGNNIGSYDISWYQQKAGSPPRYLLNYYTDSRKHQDSGVPSRFSGSKDASANAGLLLISGLQPEDEADYYCSAYKSGSYRWVFGGGTHVTVL
notes: llama VH on human IgG1 CH1-CH2-CH3, llama VL on human lambda CL
Binder B5 has an IC50 [5] of 0.52 nM, an IMAX [5] of 72.8% and an IC50 [6] of 0.45 nM. The IMAX [6] was 77.3%, the EC50 [7] was 0.359 nM and the EMAX [7] was 172 % relative to control. For the same binder, the “branches per spheroid, LOC cells, 0.5 nM” value [8] was 9 branches, the “branches per spheroid, LOC cells, 2.5 nM” value [8] was 12.3 branches and the “branches per spheroid, LOC cells, 12.5 nM” value [8] was 16 branches. The “branches per spheroid, MLP29 cells, 0.5 nM” value [9] was 12.7 branches, the “branches per spheroid, MLP29 cells, 2.5 nM” value [9] was 11.7 branches and the “branches per spheroid, MLP29 cells, 12.5 nM” value [9] was 18.7 branches. The “phospho-MET ELISA EC50, A549 cells” value [10] was 1.51 nM, the “phospho-MET ELISA EMAX (% HGF activity), A549 cells” value [10] was 69.7% and the “phospho-MET ELISA EC50, MLP29 cells” value [11] was 0.79 nM. For the same binder, the “phospho-MET ELISA EMAX (% HGF activity), MLP29 cells” value [11] was 66.8%, the EC50 [12] was 0.371 nM and the EMAX [12] was 156 % relative to control. For the same binder, the “protection from staurosporine, viability EC50, MCF10A cells” value [13] was over 32 nM, the “protection from staurosporine, viability EMAX, MCF10A cells” value [13] was 35.8% and the “protection from staurosporine, viability EC50, MLP29 cells” value [14] was over 32 nM. The “protection from staurosporine, viability EMAX, MLP29 cells” value [14] was 43.8%, the “scatter score 0-4, HPAF-II, 0.001 nM” value [15] was 0 score and the “scatter score 0-4, HPAF-II, 0.004 nM” value [15] was 0 score. For the same binder, the “scatter score 0-4, HPAF-II, 0.012 nM” value [15] was 0 score, the “scatter score 0-4, HPAF-II, 0.037 nM” value [15] was 0 score and the “scatter score 0-4, HPAF-II, 0.111 nM” value [15] was 0 score. For the same binder, the “scatter score 0-4, HPAF-II, 0.333 nM” value [15] was 0 score, the “scatter score 0-4, HPAF-II, 1.000 nM” value [15] was 1 score and the “scatter score 0-4, HPAF-II, 3.000 nM” value [15] was 2 score. For the same binder, the “scatter score 0-4, HPAF-II, 9.000 nM” value [15] was 3 score, the “scatter score 0-4, MLP29, 0.001 nM” value [16] was 0 score and the “scatter score 0-4, MLP29, 0.004 nM” value [16] was 0 score. For the same binder, the “scatter score 0-4, MLP29, 0.012 nM” value [16] was 0 score, the “scatter score 0-4, MLP29, 0.037 nM” value [16] was 0 score and the “scatter score 0-4, MLP29, 0.111 nM” value [16] was 0 score. The “scatter score 0-4, MLP29, 0.333 nM” value [16] was 0 score, the “scatter score 0-4, MLP29, 1.000 nM” value [16] was 1 score and the “scatter score 0-4, MLP29, 3.000 nM” value [16] was 2 score. For the same binder, the “scatter score 0-4, MLP29, 9.000 nM” value [16] was 3 score, the EC50 (human MET ECD [17]) was 0.064 nM and the “EMAX (OD450)” value (human MET ECD [17]) was 2.78 AU. The EC50 (mouse MET ECD [18]) was 0.048 nM and the “EMAX (OD450)” value (mouse MET ECD [18]) was 2.9 AU.
